In this data set the test system is hybrid GFP construct containing the protease cleavage sequence SVPSGCG (SEQ ID NO:21) followed by histidine residues.

On to Chymotrypsin, for which the % GFP Released (60 minutes, 37° C.) amounted to 11%; the Micrograms of GFP Released by Protease (overnight, IMAC beads) was determined as 47 µg; the µg GFP Released by Protease (60 minutes, 37° C.) is 10.6 µg.
As to Crude Bromelain, the Micrograms of GFP Released by Protease (overnight, IMAC beads) was 86 µg.
Consider Elastase, for which the Micrograms of GFP Released by Protease (overnight, IMAC beads) is 94 µg and the “release of GFP from beads, worded” value is “The most effective enzyme was elastase, with positive results apparent within five minutes after adding the enzyme”.
As for Pepsin, the Micrograms of GFP Released by Protease (overnight, IMAC beads, pH 8.0) was found to be 0 µg.
Consider Trypsin, for which the % GFP Released (60 minutes, 37° C.) stood at 4.6%; the Micrograms of GFP Released by Protease (overnight, IMAC beads); Trypsin (Sample 1) amounted to 9 µg; the Micrograms of GFP Released by Protease (overnight, IMAC beads); Trypsin (Sample 2) came out at 56 µg; the µg GFP Released by Protease (60 minutes, 37° C.) is 4.07 µg.

The record behind these values is patent publication US20080241867.
